The target of data set [1] is T1, SARS-CoV-2 nucleocapsid NTD (WT) (SARS-CoV-2 (reference genome …, UniProt P0DTC9 44-180)). As to the kind of experiment: NMR; SL4ext-like. The note with it: protein: recombinant; tags: cleaved tag; one artificial N-terminal Gly left.
Data set [2] concerns the target T1, SARS-CoV-2 nucleocapsid NTD (WT). As to the kind of experiment: ITC; low-salt. The note with it: protein: recombinant; tags: cleaved tag; one artificial N-terminal Gly left; hairpin with 3' ss extension.
In data set [3] the target is T2, SARS-CoV-2 nucleocapsid NTD (WT) (SARS-CoV-2 (reference genome …, UniProt P0DTC9 44-180)). As to the kind of experiment: ITC. The note with it: protein: recombinant; tags: cleaved tag; one artificial N-terminal Gly left; label: 5'-32P in EMSA; hairpin.
In data set [4] the target is T2, SARS-CoV-2 nucleocapsid NTD (WT). As to the kind of experiment: ITC; low-salt; NTD titrated to RNA. The note with it: protein: recombinant; tags: cleaved tag; one artificial N-terminal Gly left; label: 5'-32P in EMSA; hairpin.
Data set [5] has as its target T1, SARS-CoV-2 nucleocapsid NTD (WT). As to the kind of experiment: EMSA; 1 mM Mg2+, yeast tRNA; apparent. The note with it: protein: recombinant, tags: cleaved tag, one artificial N-terminal Gly left, label: 5'-32P in EMSA.
Data set [6] shares this target. As to the kind of experiment: NMR; intermediate exchange. The note with it: protein: recombinant; tags: cleaved tag; one artificial N-terminal Gly left; labile hairpin, Tm 36.5 C.
For data set [7] the target is unchanged. As to the kind of experiment: EMSA. The note with it: protein: recombinant; tags: cleaved tag; one artificial N-terminal Gly left; label: 5'-32P in EMSA; branched stem-loops.
The target is the same in data set [8]. As to the kind of experiment: NMR; SL4ext-like; stability confirmed by aSEC. The note with it: protein: recombinant, tags: cleaved tag, one artificial N-terminal Gly left.

In the case of GGAUGAAGAUUUUCAAGAAAACUGGAACACUAA (structured_RNA) [P2], the binding result in data set [1] is given as “binds”. Regarding GGUUUAUACCUUCCCAGGUAACAAACCAACCAACUUUC (structured_RNA) [SL1_extSL1], the Kd in data set [2] came to 87 µM.

As for GGGUGUGGCUGUCACUCGGCUGCAUGCUUAGUGCACUCACGCCC (structured_RNA) [SL4], the Kd turned out to be 53 µM in data set [3] and 64 µM in data set [4].

B1: SL4ext (SL4_extSL4) (structured_RNA)
RNA: GGUCUGUGUGGCUGUCACUCGGCUGCAUGCUUAGUGCACUCACGCAGUAUAAUUAAUAACUAAUUACUG
For B1, the “apparent K (half saturation)” value in data set [5] (15N-U/G for RNA-observed NMR, hairpin with 3' labile extension) was around 5 µM. GGCUUUCGAUCUCUUGUAGAUCUGUUCUCUAAACGAACUUUAA (structured_RNA) [SL2+3]: the “apparent K (half saturation)” value in data set [5] (two stem-loops) was around 10 µM. For the molecule GGAUAAUUAAUAACUAAUUACU (ssRNA) [Ext], the binding result in data set [6] was “binds”.

B2: SL5 (structured_RNA)
RNA: GGUCGUUGACAGGACACGAGUAACUCGUCUAUCUUCUGCAGGCUGCUUACGGUUUCGUCCGUGUUGCAGCCGAUCAUCAGCACAUCUAGGUUUCGUCCGGGUGUGACCGAAAGGUAAGAUGGAGAGCCUUGUCCCUGGUUUCAACGAGAA
On to B2, for which, in data set [7], the binding result is given as “binds”. On to GCGUGGCAACCGGGUGUUGCUAUGCCUAAUCUUUACAAAAUGCAAAGA (structured_RNA) [P3], for which the binding result in data set [8] (tandem stem-loops) is “binds”. For GCCUAAUCUUUACAAAAUGCAAAGA (structured_RNA) [P3_B], the binding result in data set [8] (labile hairpin) is “binds”.
